Measurements reported in patent publication US20140234872A1 (University of California, published 2014).

How the values were obtained:
[1] = molecular target: T1, GST (alone) (UniProt P08515 1-218 = GST); assay: GST pulldown, GIV-CT pAb blot (FIG. 20B)
T1 construct: Negative control on glutathione beads
Experimental: Equal aliquots (˜3 μg) of His-GIV-CT were incubated with ˜30 ug of GST and ˜25 μg GST-SHP-1 immobilized on glutathione beads. Bound His-GIV-CT was analyzed by immunoblotting (IB) with GIV-CT pAb. Relative amounts of bead-bound GST and GST-SHP-1 were confirmed by ponceau S staining. (B) His-GIV-CT preferentially binds the C-terminal SH2 domain of SHP-1. Equal aliquots (˜3 μg) of His-GIV-CT were incubated with ˜30 μg GST, wild-type GST-SHP-1, GST-SHP-1 lacking both SH2 domains (ΔN+CSH2), and GST-SHP-1 lacking only the N-terminal SH2 domain (ΔNSH2). Bound His-GIV-CT was analyzed by immunoblotting (IB) with GIV-CT pAb. His-GIV-CT specifically bound wild-type GST-SHP-1, but not GST alone (lanes 3, 4); binding was reduced in the absence of both SH2 domains (lane 5), but restored when the C-terminal SH2 domain was present (lane 6).
To determine if the GIV-SHP-1 interaction observed in vivo is direct, in vitro binding assays were carried out using recombinant His-GIV-CT and GST or GST-SHP-1 immobilized on glutathione beads. […] Because SHP-1 is recruited to its substrates by one or both of its in-tandem SH2 domains (30), whether the SH2 domains, and if so, which one (NSH2 or CSH2) is responsible for mediating the direct interaction of SHP-1 with GIV's C-terminus was assessed. […]

[2] = molecular target: His-Gαi3; assay: cell-based or functional assay
[3] = molecular target: T1, GST (alone); assay: GST pulldown with a panel of GST-tagged SH2 adaptors (FIG. 4A)
Experimental: FIG. 4 illustrates that GIV interacts with p85α via its phosphorylated C-terminus. […] Mock-treated GIV-CT and in vitro EGFR-phosphorylated pY GIV-CT were incubated with ˜35 μg of the indicated GST-SH2 adaptors or GST immobilized on glutathione beads. Bound His-GIV-CT was analyzed by immunoblotting (IB) with anti-His mAb. pY GIV-CT, but not GIV-CT specifically bound the C-terminal SH2 domain of p85α (lane 3), and weakly to the N-terminal SH2 domain of p85α (lane 2). […] Mock-treated GIV-CT and in vitro EGFR or Src-phosphorylated (pY GIV-CT) His-GIV-CT were incubated with ˜35 μg of GST-p85α-CSH2 adaptor or GST immobilized on glutathione beads. Bound His-GIV CT was analyzed by immunoblotting (IB) with anti-His mAb. GIV CT bound p85α-CSH2 exclusively after phosphorylation by EGFR and Src-kinases (lanes 3, 4), but not when sham-treated (lane 2). […] HeLa cells were starved (0 min), and subsequently stimulated with EGF for indicated time periods prior to lysis. Equal aliquots of lysates (bottom) were incubated with anti-GIV (CT Ab; lanes 1-3) or a mix (M) of them was incubated with pre-immune IgG Immune complexes (top) were analyzed for the presence of endogenous GIV, phosphotyrosine (pTyr) and p85α by immunoblotting (IB). […] Equal aliquots of lysates (bottom) were treated with anti-GIVCT Ab or preimmune IgG Immunoprecipitated complexes (top) were analyzed for GIV and p85α by immunoblotting (IB). […]

[4] = molecular target: endogenous SHP-1 of HEK cells (UniProt P29350 1-595); assay: anti-SHP-1 co-immunoprecipitation from HEK lysates (FIG. 26)
Experimental: Equal aliquots of HEK lysates (bottom) were incubated with either rabbit preimmune (lane 1) or anti-SHP-1 (lane 2) IgGs, and protein A agarose beads. Lysates and immune complexes (top) were analyzed for GIV, SHP-1, and Gαi3 by immunoblotting (IB). SHP-1 was immunoprecipitated efficiently and specifically by anti-SHP-1 (lane 2), but not control (lane 1) IgG. GIV, but not Gαi3 was detected in SHP-1-bound protein complexes (lane 2).

T1 sequence (P08515 whole entry): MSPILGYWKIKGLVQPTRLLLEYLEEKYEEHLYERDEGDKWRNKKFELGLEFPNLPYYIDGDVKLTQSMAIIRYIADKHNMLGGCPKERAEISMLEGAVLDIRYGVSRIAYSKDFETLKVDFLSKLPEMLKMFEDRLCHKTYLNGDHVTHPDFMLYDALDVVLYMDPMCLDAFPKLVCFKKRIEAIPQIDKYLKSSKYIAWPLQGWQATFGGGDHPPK
endogenous SHP-1 of HEK cells, sequence (P29350 whole entry): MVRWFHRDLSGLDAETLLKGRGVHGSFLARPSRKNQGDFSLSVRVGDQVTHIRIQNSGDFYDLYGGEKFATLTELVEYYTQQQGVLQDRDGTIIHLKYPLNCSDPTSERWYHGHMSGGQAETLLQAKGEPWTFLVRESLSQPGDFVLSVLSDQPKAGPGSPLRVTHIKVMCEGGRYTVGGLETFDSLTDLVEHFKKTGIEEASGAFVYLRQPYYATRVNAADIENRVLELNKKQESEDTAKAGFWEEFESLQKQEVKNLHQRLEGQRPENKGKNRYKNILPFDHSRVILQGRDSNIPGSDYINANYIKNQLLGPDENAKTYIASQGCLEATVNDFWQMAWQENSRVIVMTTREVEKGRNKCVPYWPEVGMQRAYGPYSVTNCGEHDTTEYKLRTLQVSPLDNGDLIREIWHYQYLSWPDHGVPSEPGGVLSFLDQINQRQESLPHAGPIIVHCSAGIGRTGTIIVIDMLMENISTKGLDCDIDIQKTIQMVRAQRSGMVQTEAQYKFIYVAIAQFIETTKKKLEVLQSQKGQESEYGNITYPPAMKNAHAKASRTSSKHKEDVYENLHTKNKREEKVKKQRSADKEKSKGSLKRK

| steady-state GTPase activity of His-Gαi3 [2] | binding result [3] | binding result [4] | Binder | binding result [1] |
| --- | --- | --- | --- | --- |
| ~1.7 fold over the basal activity |  |  | His-GIV-CT (aa 1660-1870), wild-type, not phosphorylated (mock- or sham-treated) (other, Expressed in E. coli; also called mock-WT; mock-treated GIV-CT; not shown: hexahistidine (6xHis) tag of pET28b) SETLESRHHKIKTGSPGSEVVTLQQFLEESNKLTSVQIKSSSQENLLDEVMKSLSVSSDFLGKDKPVSCGLARSVSGKTPGDFYDRRTTKPEFLRPGPRKTEDTYFISSAGKPTPGTQGKIKLVKESSLSRQSKDSNPYATLPRASSVISTAEGTTRRTSIHDFLTKDSRLPISVDSPPAAADSNTTAASNVDKVQESRNSKSRSREQQSS | no binding (tested: ˜3 µg His-GIV-CT, ˜30 µg GST) |
| ~1.7 fold over the basal activity | no binding |  | His-GIV-CT (aa 1660-1870), wild-type, phosphorylated in vitro by recombinant EGFR kinase (other, phosphotyrosine at Y1764 and Y1798 (sites found by mass spectrometry after EGFR kinase; EGFR prefers Y1764), also called pY GIV-CT; pY GIV-CT (EGFR); not shown: hexahistidine (6xHis) tag of pET28b) SETLESRHHKIKTGSPGSEVVTLQQFLEESNKLTSVQIKSSSQENLLDEVMKSLSVSSDFLGKDKPVSCGLARSVSGKTPGDFYDRRTTKPEFLRPGPRKTEDTYFISSAGKPTPGTQGKIKLVKESSLSRQSKDSNPYATLPRASSVISTAEGTTRRTSIHDFLTKDSRLPISVDSPPAAADSNTTAASNVDKVQESRNSKSRSREQQSS |  |
|  |  | no binding | endogenous Gαi3 of HEK cells (other, UniProt P08754 2-354, looked up) GCTLSAEDKAAVERSKMIDRNLREDGEKAAKEVKLLLLGAGESGKSTIVKQMKIIHEDGYSEDECKQYKVVVYSNTIQSIIAIIRAMGRLKIDFGEAARADDARQLFVLAGSAEEGVMTPELAGVIKRLWRDGGVQACFSRSREYQLNDSASYYLNDLDRISQSNYIPTQQDVLRTRVKTTGIVETHFTFKDLYFKMFDVGGQRSERKKWIHCFEGVTAIIFCVALSDYDLVLAEDEEMNRMHESMKLFDSICNNKWFTETSIILFLNKKDLFEEKIKRSPLTICYPEYTGSNTYEEAAAYIQCQFEDLNRRKDTKEIYTHFTCATDTKNVQFVFDAVTDVIIKNNLKECGLY |  |
